{"source": "paper PMC9887155", "about": "(2023)", "key": {"[1]": {"biological_target": "T1, Gtα/Giα with a C-terminus truncated by six amino acids (European robin (Erithacus rubecula))", "assay": "SPR; two-state reaction model, kd1"}, "[2]": {"biological_target": "T1, Gtα/Giα with a C-terminus truncated by …", "assay": "SPR; two-state reaction model, first step (kd1/ka1)"}}, "note": "Ends that are not written are not given here."}
{"binder": "CGAGAWERWFVVCKPFGNIKFDGK-NH2 (cysteine pairing not given here)", "note": "[peptide LWO2 (second cytoplasmic loop of long-wavelength-sensitive opsin of European robin)]", "values": [{"measurement": "koff", "setting": "[1]", "result": 0.00434, "unit": "s⁻¹"}, {"measurement": "Kd", "setting": "[2]", "result": 933, "unit": "nM"}]}
